Here are results for 139 substances from the supplement of paper PMC12042874.

± gives the uncertainty stated by the source.

This data set is described as follows: amyloid nucleation score (Sup35N fusion, yeast selection) (log enrichment); library NNK1; higher = more nucleation; inactive = no reads after selection. The gist of the method: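 In psi-negative yeast, Sup35N fusions carrying peptides of 20 random codons were induced with 100 μM copper sulfate for 24 hours. The cells then grew 7 days at 30°C on medium lacking adenine and uracil, and plasmid inserts from input and output were Illumina-sequenced, excluding sequences with under 100 input reads. Nucleation score is the DiMSum log enrichment of output over input reads, centred on the mode score of non-aggregating sequences.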
As for SNCVIVSQLKITDA, the amyloid nucleation score was -0.184 ± 0.44.

With SNDKHKIRIYAGYFFVQRGC, the amyloid nucleation score was found to be 0.312 ± 0.37. SNFKK returned an amyloid nucleation score of -1.06 ± 0.64.

Take SNFLHCIVIILWLCFNL: the amyloid nucleation score stood at 0.53 ± 0.71.

SNGCPFDTIDQAKVGTVV yielded an amyloid nucleation score of 0.861 ± 0.68. With SNGRFWYMADSVST, the amyloid nucleation score entry was “inactive”. The substance SNIASNKKVIMINHFKGFSL yielded an amyloid nucleation score of 3.58 ± 0.057. For the substance SNKDLKSLTICRSTQHWTVL, the amyloid nucleation score came out at 0.095 ± 0.27. Turning to SNLRSVMKRNYTVRLFCVG, the amyloid nucleation score result was “inactive”. With SNNHQFFCDTFDIGWWEVGR, the amyloid nucleation score is -1.63 ± 2.4. SNQRKYGAPVKSLWEIFKSE: the amyloid nucleation score turned out to be 1.34 ± 0.93. The substance SNSFRLGGSNNYPMSSAPGL came in with an amyloid nucleation score of -1.74 ± 2.4. SNSLCETWSRWWKRMFTDTF displayed an amyloid nucleation score of 0.179 ± 0.48.

The substance SNSLTFYFSKCYTSCSNLLG registered an amyloid nucleation score of 6.079 ± 0.057.

SNSRGYSWRDTGTNLRGYPE registered an amyloid nucleation score of -0.238 ± 1.5. The value for SNSSVSW was 0.717 ± 0.57. The value for SNTEP was -0.487 ± 0.57; that for SNVDSWFGRVTSA was -0.698 ± 0.33; that for SPAFQWHLYPSA was 0.592 ± 0.87. Consider SPCWSHF, for which the amyloid nucleation score entry was “inactive”. For the substance SPEGWYFRTTWLVA, the amyloid nucleation score entry was “inactive”. Turning to SPFLSAFLSFLTSFYLIFMG, the amyloid nucleation score was -0.164 ± 0.61. As for SPFMGCLYNLLDLDDGS, the amyloid nucleation score was -0.65 ± 0.51. Regarding SQCSSLIHAIEMDRFVF, the amyloid nucleation score was found to be 0.276 ± 0.23.

Consider SQKEFRKTAIKTHLMFRIHL, for which the amyloid nucleation score is -0.258 ± 0.29. The value for SQRTWCLLGIGSTITRIHFG was 2.74 ± 0.23; that for SQSRRVSGQQDGPQMYSNGP was -0.232 ± 0.36; that for SQYDWLKLFSNVY was -0.175 ± 0.21. In the case of SRASKYMYVWVVLITFHCLR, the amyloid nucleation score entry was “inactive”.

On to SRFKPWGGSFVGYCVLYGRL, for which the amyloid nucleation score was -1.01 ± 0.71.

On to SRFMGTNN, for which the amyloid nucleation score worked out at 0.102 ± 0.84.

Turning to SRFPYKKSVRTDSGRMSM, the amyloid nucleation score is -0.393 ± 0.86. SRGFKPMPGQYFCKG gave an amyloid nucleation score of 0.165 ± 0.26. SRGVQGMYDDYKDGGLLYLV had an amyloid nucleation score of -0.228 ± 0.19.

SRLQLNWLQPRWY: the amyloid nucleation score is 4.27 ± 0.077. SRLYVCFALSSLSISRNNYG displayed an amyloid nucleation score of 3.11 ± 0.22. SRNRLFVRRVRLANSLSFNA: the amyloid nucleation score was -0.226 ± 1.1.

On to SRPSQCYINAFMFSMFKSGN, for which the amyloid nucleation score result is “inactive”. As to SRRSENYFSGANRIGHGGST, the amyloid nucleation score amounted to 0.54 ± 0.4. The substance SRTTAVSYLGNGFVI came in with an amyloid nucleation score of -0.573 ± 0.42.

SRTVVTYHQLTWHGVGYMV showed an amyloid nucleation score of 0.571 ± 1.2. In the case of SRVFLCCAMCLRRNSGYGR, the amyloid nucleation score was -0.362 ± 0.4. In the case of SRVSLFGWSGFKFTSRDSWL it was 3.51 ± 0.18; in that of SRWGPRL, -0.494 ± 0.71; in that of SRWKLGGGDL, 0.006 ± 0.64. In the case of SRYQEYRFQMCMMECMRRLA it was 0.115 ± 1; in that of SRYWSLYGGIIVVSRSRTGR, 0.45 ± 0.32.

Consider SSCSYLGRDRMCFWPYFLTT, for which the amyloid nucleation score is 0.016 ± 0.39. For the substance SSDKLCAYFVREIWTQGAGW, the amyloid nucleation score was 0.507 ± 0.54. As for SSFARL, the amyloid nucleation score was 1.12 ± 0.55. In the case of SSFIWMNC it was -0.377 ± 0.42; in that of SSFLASGL, -0.529 ± 1.3; in that of SSFRVGTIVTNSAWRWSPCW, 5.4 ± 0.062.

In turn, SSGFSTMYIK registered an amyloid nucleation score of -0.892 ± 2.1. The value for SSLGAIYGLINQRPA was 0.776 ± 1.

Consider SSLLKWWDIVMKGEVIHGWC, for which the amyloid nucleation score was -0.095 ± 0.47. As to SSLRPRKCCWRKTRRLSKGG, the amyloid nucleation score was 0.441 ± 0.67. In the case of SSMNSWTDFFHFCST it was 0.032 ± 0.97.

SSNSGYSWSFTAWMGLGMRR gave an amyloid nucleation score of -0.037 ± 1.7.

For SSPVRGASKSSRGSTNVHAN, the amyloid nucleation score came out at 0.29 ± 1.1. For SSRCY, the amyloid nucleation score was found to be 0.104 ± 0.85. SSRNRV showed an amyloid nucleation score of -1.07 ± 0.59. For the substance SSSEGRWMGYGP, the amyloid nucleation score is -0.276 ± 0.53.

For the substance SSSHDSIVFVRRLPHYCRGF, the amyloid nucleation score is 0.323 ± 0.43.

Regarding SSVARIIWKFCRFSTVGVCF, the amyloid nucleation score worked out at 0.858 ± 0.59. As to SSVCGKL, the amyloid nucleation score was -0.211 ± 0.7. The value for SSVPHFAGSVVASDPPLYRL was 0.949 ± 0.81; that for SSVSPIHHRLYKTETPMWLT was -0.369 ± 0.58.

In the case of SSYAVSTSSPCLSATSARLK, the amyloid nucleation score is 0.893 ± 0.98. Substance STAAVHCRMRTRFQLRRLRD yielded an amyloid nucleation score of -0.086 ± 0.35.

Regarding STFAAFSNTVYASCQYLLNG, the amyloid nucleation score is -1.14 ± 0.93. With STFSLTSRASHKVPQDRYFP, the amyloid nucleation score is 0.353 ± 0.61. Substance STKSTQDSSSDFIAVCGKRE registered an amyloid nucleation score of 0.925 ± 1.1. As to STLLYGLLAYWTYGFAWLFF, the amyloid nucleation score result is “inactive”. In the case of STLPMHRNMTLRRLSCVQSY it was -0.069 ± 0.34. Take STLSAYCPTILA: the amyloid nucleation score is 0.171 ± 0.25. On to STNECSLLMGDSCGHHRSHC, for which the amyloid nucleation score was -0.171 ± 0.9.

Substance STRYRPLNWYLTKPPVRFKM showed an amyloid nucleation score of -0.037 ± 0.56. The value for STSATPYFSFRKIFMASAAS was -0.029 ± 0.57; that for STVAGRWNYCSVTLLCVGFF was 1.45 ± 0.31; that for STVGPMWVWTTTLAKNAIPK was 0.833 ± 0.57. On to SVAIASLFFLSFNFVDIRLL, for which the amyloid nucleation score was found to be 0.832 ± 0.15. On to SVARCASPMQSLSLRGRPEG, for which the amyloid nucleation score result is “inactive”.

SVCMLPIDGMGEEVRVFPGV registered an amyloid nucleation score of -0.641 ± 0.62. SVCVCLTIGCDFSIESVRCN showed an amyloid nucleation score of 2.64 ± 0.32. SVDGL came in with an amyloid nucleation score of -0.763 ± 0.2. On to SVDLFSCRRIRLTLLEVFVT, for which the amyloid nucleation score is -0.028 ± 0.41. The value for SVDLVMEYSCDGNTLDFRSL was 0.157 ± 1.4; that for SVHSLMRDRISVPPRIVKNP was -0.008 ± 0.61. The value for SVIVMVCVGL was 1.78 ± 0.13.

SVLDFNNYMEIVAQVKGEDP: the amyloid nucleation score entry is “inactive”. Turning to SVLNNLAAPDKARLRPCNWV, the amyloid nucleation score was determined as 0.379 ± 0.54.

As for SVNLGGHAGCCGCWAYGGFR, the amyloid nucleation score was 0.851 ± 0.37. With SVNWRYRALFDVRPAPLASQ, the amyloid nucleation score is -1.74 ± 2.4. Substance SVPRSGKALLLSMMQLGYDS gave an amyloid nucleation score of 0.09 ± 0.39.

The substance SVRVPEHGRRWVSKGVG displayed an amyloid nucleation score of -0.785 ± 1.1. In the case of SVSILP, the amyloid nucleation score was -0.34 ± 0.53. For the substance SVSYRDCVVKILK, the amyloid nucleation score is 4 ± 0.074. As to SVTERCKLQSHHDMVGGM, the amyloid nucleation score was found to be 3.37 ± 0.13.

SVWLANCYGKYMGVVCYSKV showed an amyloid nucleation score of 0.537 ± 0.32.

Take SWCFN: the amyloid nucleation score worked out at 1.34 ± 0.59. SWCHVKIVSYRVSEVR yielded an amyloid nucleation score of 0.228 ± 0.32. Regarding SWGFSMLRMEEWRMPVLFYS, the amyloid nucleation score was -0.446 ± 0.58.

The substance SWNNLIVVRSKVDGCAVSAG showed an amyloid nucleation score of 0.504 ± 0.73. SWPLWEVMPRWGARDRGWVG showed an amyloid nucleation score of 0.553 ± 0.93. In turn, SWPMTIQYGDSIWNWKMSVM had an amyloid nucleation score of 0.388 ± 0.58. Turning to SWPSPGVRQEQNCWCTRTFV, the amyloid nucleation score entry was “inactive”. As for SWRSSTCSALVQGQYKA, the amyloid nucleation score is -0.051 ± 0.32. The substance SWRVCVMFDTL yielded an amyloid nucleation score of -0.987 ± 1.1.

In the case of SWSITPNKKFDKTVSFQYHD, the amyloid nucleation score entry is “inactive”.

SWVNRPYWSPGDTTVWYGC showed an amyloid nucleation score of 1.06 ± 0.52. The value for SYESSLNGRISFRNGERLLC was 0.115 ± 0.42; that for SYFGYNVIMEIHTI was -0.122 ± 0.31; that for SYFRREDCFVFKVITLFIMS was -0.675 ± 0.46. The value for SYGSVCNDNQSNRRYVHIHM was 2.89 ± 0.22. Consider SYKLVRTLNG, for which the amyloid nucleation score result was “inactive”.

Substance SYLGSAAIYVCLAGRPSGQR registered an amyloid nucleation score of -0.725 ± 1.2.

In turn, SYLHMFTMFV had an amyloid nucleation score of -0.654 ± 0.52. On to SYLQGELTDDSMTSFFKGM, for which the amyloid nucleation score is -1.3 ± 1.4. In the case of SYLYTVNLFDFYCCRLRGST it was 3.99 ± 0.1; in that of SYMNGKWMSMWVRLWGCLAF, 0.004 ± 0.48.

The substance SYMSLAFIS registered an amyloid nucleation score of 0.004 ± 0.69.

In the case of SYNQLDKCR, the amyloid nucleation score result was “inactive”. In the case of SYSCSVSRKEFSIGVGEHEG it was -0.44 ± 0.5.

The substance SYSYIRLDNFSMFIYFADCS yielded an amyloid nucleation score of 3.92 ± 0.066. The value for SYSYRLQPFIAMLLGSFL was -1.04 ± 2.7; that for SYWKNTVSCYVFFGMSRSRT was -0.634 ± 1.4; that for SYYHRFSRIGMRSLGQEQCY was “inactive”. SYYNSVWTRYECAVVWT yielded an amyloid nucleation score of 0.413 ± 1.1.

For the substance SYYYHV, the amyloid nucleation score was 1.17 ± 0.66. TAALFLAMLGDYVVSNMWTT: the amyloid nucleation score result was “inactive”. Take TAGCICPCKQAVYGICQSRT: the amyloid nucleation score was -0.447 ± 0.71. Turning to TAGFPLCYNCYEKP, the amyloid nucleation score is -0.625 ± 0.35. TAKRLAT: the amyloid nucleation score was found to be 0.21 ± 0.8. For the substance TATDPLLSYGAHL, the amyloid nucleation score was -0.354 ± 0.31. The substance TAVIKLSCLSLFMNSIMLVY yielded an amyloid nucleation score of 2.59 ± 0.12. Take TAYIIKHSFWLGPFNLGSLM: the amyloid nucleation score stood at 3.88 ± 0.12.

TAYSNG came in with an amyloid nucleation score of -0.814 ± 0.74. The value for TAYVLLWTRTVFVFPEVHTF was 0.887 ± 0.43.
